Measurements taken from US10772928B2, “Modulation and detection of a neuronal alternative splicing regulatory network for treatment and diagnosis of neurological disorders” (The Governing Council of the University of Toronto, priority 2014, dated 2020).

Biological target: T1, nSR100 (Mus musculus, UniProt Q8BKA3)
T1 construct: host or cells: mouse N2A cells
T1 sequence (Q8BKA3 1-608): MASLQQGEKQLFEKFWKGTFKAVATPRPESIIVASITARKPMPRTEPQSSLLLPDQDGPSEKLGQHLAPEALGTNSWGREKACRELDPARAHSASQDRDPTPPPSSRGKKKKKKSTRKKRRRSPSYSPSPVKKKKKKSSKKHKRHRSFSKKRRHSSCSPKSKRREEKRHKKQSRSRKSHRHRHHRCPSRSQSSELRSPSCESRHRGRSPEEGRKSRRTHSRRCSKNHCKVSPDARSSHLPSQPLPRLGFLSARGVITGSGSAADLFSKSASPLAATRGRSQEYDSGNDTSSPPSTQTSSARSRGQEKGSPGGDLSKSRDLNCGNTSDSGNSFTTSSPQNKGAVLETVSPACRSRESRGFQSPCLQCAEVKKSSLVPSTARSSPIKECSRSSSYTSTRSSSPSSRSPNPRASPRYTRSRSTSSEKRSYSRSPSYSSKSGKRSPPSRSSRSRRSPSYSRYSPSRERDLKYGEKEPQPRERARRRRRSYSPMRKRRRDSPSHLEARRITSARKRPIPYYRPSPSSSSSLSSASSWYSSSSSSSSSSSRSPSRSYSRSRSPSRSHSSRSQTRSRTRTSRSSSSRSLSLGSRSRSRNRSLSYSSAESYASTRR
Experiment: AP-MS nSR100 interaction partners from mouse N2A cells (Table 5)
Assay type: binding
Conditions: for AvgP (average of the SAINT scores) / MaxP (maximal SAINT score): bait Srrm4; for FoldChange between the prey Avg spectra of the bait and control purifications: bait Srrm4, 0.1 added to prevent division by 0; for AvgSpec (average number of spectra per replicate): bait Srrm4, 2 replicates; for Spectra (number of spectra for the prey in the purification of the bait): AP-MS; for SpecSum: bait Srrm4, sum of spectra over 2 replicates

[1] = bait Srrm4, biological replicate 1 (first number of the cell)
[2] = bait Srrm4, biological replicate 2 (second number of the cell)

Source text: By applying affinity purification coupled to mass-spectrometry (AP-MS), several interaction nSR100 partner proteins were detected that provide insight into mechanisms of post-translational regulation of nSR100 levels.

B1: Luc7l3 (protein, UniProt Q5SUF2 1-432, looked up)
Luc7-like protein 3: MISAAQLLDELMGRDRNLAPDEKRSNVRWDHESVCKYYLCGFCPAELFTNTRSDLGPCEKIHDENLRKQYEKSSRFMKVGYERDFLRYLQSLLAEVERRIRRGHARLALSQNQQSSGAAGPTGKNEEKIQVLTDKIDVLLQQIEELGSEGKVEEAQGMMKLVEQLKEERELLRSTTSTIESFAAQEKQMEVCEVCGAFLIVGDAQSRVDDHLMGKQHMGYAKIKATVEELKEKLRKRTEEPDRDERLKKEKQEREEREKEREREREERERKRRREEEEREKERARDRERRKRSRSRSRHSSRTSDRRCSRSRDHKRSRSRDRRRSRSRDRRRSRSHDRSERKHRSRSRDRRRSKSRDRKSYKHRSKSRDREQDRKSKEKEKKGSDDKKSSVKSSSREKQSEDTNPESKESDTKNEVNGTSEDIKSEGDTQSN
- AvgP (average of the SAINT scores): 1
- MaxP (maximal SAINT score): 1
- FoldChange between the prey Avg spectra of the bait and control purifications: 7.33
- AvgSpec (average number of spectra per replicate): 55
- Spectra (number of spectra for the prey in the purification of the bait) [1]: 45
- Spectra (number of spectra for the prey in the purification of the bait) [2]: 65
- SpecSum: 110

B2: Cdc5l (protein, UniProt Q6A068 1-802, looked up)
Cell division cycle 5-like …: MPRIMIKGGVWRNTEDEILKAAVMKYGKNQWSRIASLLHRKSAKQCKARWYEWLDPSIKKTEWSREEEEKLLHLAKLMPTQWRTIAPIIGRTAAQCLEHYEFLLDKTAQRDNEEETTDDPRKLKPGEIDPNPETKPARPDPIDMDEDELEMLSEARARLANTQGKKAKRKAREKQLEEARRLAALQKRRELRAAGIEIQKKRKKKRGVDYNAEIPFEKKPALGFYDTSEENYQALDADFRKLRQQDLDGELRSEKEGRDRKKDKQHLKRKKESDLPSAILQTSGVSEFTKKRSKLVLPAPQISDAELQEVVKVGQASEVARQTAEESGITNSASSTLLSEYNVTNNSIALRTPRTPASQDRILQEAQNLMALTNVDTPLKGGLNTPLHESDFSGVTPQRQVVQTPNTVLSTPFRTPSNGAEGLTPRSGTTPKPVTNATPGRTPLRDKLNINPEDGMADYSDPSYVKQMERESREHLRLGLLGLPAPKNDFEIVLPENAEKELEEREIDDTYIEDAADVDARKQAIRDAERVKEMKRMHKAVQKDLPRPSEVNETILRPLNVEPPLTDLQKSEELIKKEMITMLHYDLLHHPYEPSGNKKGKNVGFATNNSEHITYLEHSPYEKFSKEDLKKAQDALVQEMEVVKQGMSHGELSSEAYNQVWEECYSQVLYLPAQSRYTRANLASKKDRIESLEKRLEINRGHMTTEAKRAAKMEKKMKILLGGYQSRAMGLMKQLNDLWDQIEQAHLELRTFEELKKHEDSAIPRRLECLKEDVQRQQEREKELQQRYADLLMEKETLQAKF
- AvgP (average of the SAINT scores): 1
- MaxP (maximal SAINT score): 1
- FoldChange between the prey Avg spectra of the bait and control purifications: 110
- AvgSpec (average number of spectra per replicate): 11
- Spectra (number of spectra for the prey in the purification of the bait) [1]: 10
- Spectra (number of spectra for the prey in the purification of the bait) [2]: 12
- SpecSum: 22

B3: Snip1 (protein, UniProt Q8BIZ6 1-383, looked up)
Smad nuclear-interacting …: MKAGKSERERSGRRRHRSGDALTTVVVKQERLSPEPVAHRRPDAPAASLSPPAAEPGHSGHRGSRARSPAKKKSKSSGRRSKSPRTKRSQSPHYPMVKVKQEREDHPRRGREDRQHREPSEQEHRRARNSERDRHRGHSRQGRSSDERPVSGQDRDRDSQNLQAQEEERDFHNARRREHRQQNESAGSEAQEVIPRPAGNRSKEVPVKEKPSFELSGALLEDTNTFRGVVIKYSEPPEARIPKKRWRLYPFKNDEVLPVMYIHRQSAYLLGRHRRIADIPIDHPSCSKQHAVFQYRLVEYTRADGTVGRRVKPYIIDLGSGNGTFLNNKRIEPQRYYELKEKDVLKFGFSSREYVLLHESSDTSELDRKEDEDDEEEEMVSDS
- AvgP (average of the SAINT scores): 1
- MaxP (maximal SAINT score): 1
- FoldChange between the prey Avg spectra of the bait and control purifications: 70
- AvgSpec (average number of spectra per replicate): 7
- Spectra (number of spectra for the prey in the purification of the bait) [1]: 5
- Spectra (number of spectra for the prey in the purification of the bait) [2]: 9
- SpecSum: 14

B4: Pgam5 (protein, UniProt Q8BX10 1-288, looked up)
Serine/threonine-protein …: MAFRQALQLAACGLAGGSAAVLFSAVAVGKPRGGGDADTRATEPPAWTGARAGRGVWDTNWDRREPLSLINLKKRNVESGEDELTSRLDHYKAKATRHIFLIRHSQYHVDGSLEKDRTLTPLGREQAELTGLRLASLGLKFNKIVHSSMTRAVETTDIISKHLPGVSRVSTDLLREGAPIEPDPPVSHWKPEAVQYYEDGARIEAAFRNYIHRADARQEEDSYEIFICHANVIRYIVCRALQFPPEGWLRLSLNNGSITHLVIRPNGRVALRTLGDTGFMPPDKITRS
- AvgP (average of the SAINT scores): 1
- MaxP (maximal SAINT score): 1
- FoldChange between the prey Avg spectra of the bait and control purifications: 160
- AvgSpec (average number of spectra per replicate): 16
- Spectra (number of spectra for the prey in the purification of the bait) [1]: 20
- Spectra (number of spectra for the prey in the purification of the bait) [2]: 12
- SpecSum: 32

B5: Snrpb2 (protein, UniProt Q9CQI7 1-225, looked up)
U2 small nuclear …: MDIRPNHTIYINNMNDKIKKEELKRSLYALFSQFGHVVDIVALKTMKMRGQAFVIFKELGSSTNALRQLQGFPFYGKPMRIQYAKTDSDIISKMRGTFADKEKKKEKKKAKTMEQAAAAANKKPGQGTPNAANTQGTAAPNPQVPDYPPNYILFLNNLPEETNEMMLSMLFNQFPGFKEVRLVPGRHDIAFVEFENDGQAGAARDALQGFKITPSHAMKITYAKK
- AvgP (average of the SAINT scores): 1
- MaxP (maximal SAINT score): 1
- FoldChange between the prey Avg spectra of the bait and control purifications: 55
- AvgSpec (average number of spectra per replicate): 5.5
- Spectra (number of spectra for the prey in the purification of the bait) [1]: 6
- Spectra (number of spectra for the prey in the purification of the bait) [2]: 5
- SpecSum: 11

B6: Snx8 (protein, UniProt Q8CFD4 1-459, looked up)
Sorting nexin-8: MTGRAMDPLPSPAVAAAAEAEADEEADPPATGPRTSQVTEWRALDPGRMQMPQGNPLLLSYTLQELLAKDTVQVELIPEKKGLFLKHVEYEVSSQRFKSSVYRRYNDFVVFHEVLLHKFPYRMVPALPPKRVLGADREFIEGRRRALKRFINLVARHPPFSEDVLLKLFLSFSGSDVQHKLKEAAQCVGDEFMNCKLAARAKDFLPADIQTQFAMSRELIRNVYNSFYKLRDRAERIASRAIDNAADLLIFGKELSALGSDTTPLPSWAALHLSTWGSLKQALKGLSVEFALLADRAAQQGKKEENDVVEKLNLFLDLLQSYKDLCERHEKGVLHKHQRALHKYGLMKRQMMSAAHGREPESVEQLESRIVEQENVIQTMELRNYFSLYCLHQETQLVHVYLPLTSHILGAFVNSQIQGHKEMSKVWNDLKPKLSCLFAGPHSVLTPPRSPQEDGVCPH
- AvgP (average of the SAINT scores): 1
- MaxP (maximal SAINT score): 1
- FoldChange between the prey Avg spectra of the bait and control purifications: 145
- AvgSpec (average number of spectra per replicate): 14.5
- Spectra (number of spectra for the prey in the purification of the bait) [1]: 11
- Spectra (number of spectra for the prey in the purification of the bait) [2]: 18
- SpecSum: 29

B7: Sap18 (protein, UniProt O55128 2-153, looked up)
Histone deacetylase complex …: AVESRVTQEEIKKEPEKPIDREKTCPLLLRVFTTNNGRHHRMDEFSRGNVPSSELQIYTWMDATLKELTSLVKEVYPEARKKGTHFNFAIVFMDLKRPGYRVKEIGSTMSGRKGTDDSMTLQSQKFQIGDYLDIAITPPNRAPPSSGRMRPY
- AvgP (average of the SAINT scores): 1
- MaxP (maximal SAINT score): 1
- FoldChange between the prey Avg spectra of the bait and control purifications: 225
- AvgSpec (average number of spectra per replicate): 22.5
- Spectra (number of spectra for the prey in the purification of the bait) [1]: 17
- Spectra (number of spectra for the prey in the purification of the bait) [2]: 28
- SpecSum: 45
